Data on 4 substances can be found in IntAct's records for PubMed 28258151.

For the assay, the target named is cfah_human CFH (UniProt P08603).
Sequence of cfah_human CFH (P08603 whole entry): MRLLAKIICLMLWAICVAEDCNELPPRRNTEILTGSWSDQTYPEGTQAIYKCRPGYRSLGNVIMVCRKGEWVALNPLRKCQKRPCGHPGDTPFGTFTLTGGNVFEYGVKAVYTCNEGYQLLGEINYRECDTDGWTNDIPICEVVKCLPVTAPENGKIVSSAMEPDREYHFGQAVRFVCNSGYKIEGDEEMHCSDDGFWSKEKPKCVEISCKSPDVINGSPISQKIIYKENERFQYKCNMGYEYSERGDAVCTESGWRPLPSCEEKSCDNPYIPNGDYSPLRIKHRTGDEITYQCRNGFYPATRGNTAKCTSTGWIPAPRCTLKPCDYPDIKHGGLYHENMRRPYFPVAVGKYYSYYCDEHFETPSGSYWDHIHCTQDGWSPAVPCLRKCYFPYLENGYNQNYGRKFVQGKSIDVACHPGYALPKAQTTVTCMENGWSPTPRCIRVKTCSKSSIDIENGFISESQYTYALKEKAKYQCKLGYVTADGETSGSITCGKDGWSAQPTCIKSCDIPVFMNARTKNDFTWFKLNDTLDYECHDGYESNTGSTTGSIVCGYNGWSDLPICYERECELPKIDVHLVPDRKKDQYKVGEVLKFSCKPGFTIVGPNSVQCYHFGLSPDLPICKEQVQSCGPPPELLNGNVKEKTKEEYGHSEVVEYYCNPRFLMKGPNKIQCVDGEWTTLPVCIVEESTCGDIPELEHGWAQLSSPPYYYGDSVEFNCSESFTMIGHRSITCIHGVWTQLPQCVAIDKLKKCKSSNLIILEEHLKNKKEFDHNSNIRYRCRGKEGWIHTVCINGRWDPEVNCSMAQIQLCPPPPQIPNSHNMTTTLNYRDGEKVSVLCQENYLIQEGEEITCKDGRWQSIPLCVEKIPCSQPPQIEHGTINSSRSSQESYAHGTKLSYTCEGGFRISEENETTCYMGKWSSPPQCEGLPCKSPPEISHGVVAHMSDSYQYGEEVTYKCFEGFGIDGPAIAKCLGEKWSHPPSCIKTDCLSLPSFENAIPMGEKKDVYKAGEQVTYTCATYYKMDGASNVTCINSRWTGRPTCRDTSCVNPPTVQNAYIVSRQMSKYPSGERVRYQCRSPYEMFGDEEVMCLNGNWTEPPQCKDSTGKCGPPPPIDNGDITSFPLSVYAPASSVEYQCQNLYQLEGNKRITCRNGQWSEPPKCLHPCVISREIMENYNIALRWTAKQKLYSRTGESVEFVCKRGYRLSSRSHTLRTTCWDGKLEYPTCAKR
Turning to “Serine-aspartate repeat-containing protein E (Staphylococcus aureus (strain Mu50 / ATCC 700699)), Q932F7 D588A”, the “effect of a mutation on the interaction” value is reported as “disrupting interaction”.

Consider “Serine-aspartate repeat-containing protein E (Staphylococcus aureus (strain Mu50 / ATCC 700699)), Q932F7 Q419A”, for which the “effect of a mutation on the interaction” value is “decreasing interaction”.

Take “Serine-aspartate repeat-containing protein E (Staphylococcus aureus (strain Mu50 / ATCC 700699)), Q932F7 L335A”: the “effect of a mutation on the interaction” value is reported as “decreasing interaction”.

Turning to “Serine-aspartate repeat-containing protein E (Staphylococcus aureus (strain Mu50 / ATCC 700699)), Q932F7 D334A”, the “effect of a mutation on the interaction” value is listed as “decreasing interaction”.
